In PMC8860610:

Legend:
[1] = target: yeast nucleosome (histone octamer on 147-bp Widom 601 DNA) (Saccharomyces cerevisiae) (UniProt P04911)
[2] = target: Tof1-Csm3 (full-length, CBP-tagged) (Saccharomyces cerevisiae) (UniProt P53840)
[3] = target: yeast nucleosome (histone octamer on 147-bp Widom 601 DNA) (Saccharomyces cerevisiae) (UniProt P04911); remark: listed apart in the source
[4] = target: yeast nucleosome (histone octamer on 147-bp Widom 601 DNA) (Saccharomyces cerevisiae) (UniProt P04911); remark: listed apart in the source

yeast nucleosome (histone octamer on 147-bp Widom 601 DNA) (Saccharomyces cerevisiae), sequence (P04911 whole entry, chain 1 of 4, other chains not shown): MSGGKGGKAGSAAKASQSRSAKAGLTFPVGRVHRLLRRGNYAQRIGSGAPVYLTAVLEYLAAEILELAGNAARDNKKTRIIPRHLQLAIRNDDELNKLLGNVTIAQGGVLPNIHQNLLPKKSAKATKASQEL
yeast nucleosome (histone octamer on 147-bp Widom 601 DNA) (Saccharomyces cerevisiae), sequence (P02293 whole entry, chain 2 of 4, other chains not shown, further chain): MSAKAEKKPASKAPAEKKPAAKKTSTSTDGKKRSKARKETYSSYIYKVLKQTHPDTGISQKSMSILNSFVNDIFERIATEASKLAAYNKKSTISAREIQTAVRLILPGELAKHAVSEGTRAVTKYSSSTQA
Tof1-Csm3 (full-length, CBP-tagged) (Saccharomyces cerevisiae), sequence (P53840 whole entry, chain 1 of 2): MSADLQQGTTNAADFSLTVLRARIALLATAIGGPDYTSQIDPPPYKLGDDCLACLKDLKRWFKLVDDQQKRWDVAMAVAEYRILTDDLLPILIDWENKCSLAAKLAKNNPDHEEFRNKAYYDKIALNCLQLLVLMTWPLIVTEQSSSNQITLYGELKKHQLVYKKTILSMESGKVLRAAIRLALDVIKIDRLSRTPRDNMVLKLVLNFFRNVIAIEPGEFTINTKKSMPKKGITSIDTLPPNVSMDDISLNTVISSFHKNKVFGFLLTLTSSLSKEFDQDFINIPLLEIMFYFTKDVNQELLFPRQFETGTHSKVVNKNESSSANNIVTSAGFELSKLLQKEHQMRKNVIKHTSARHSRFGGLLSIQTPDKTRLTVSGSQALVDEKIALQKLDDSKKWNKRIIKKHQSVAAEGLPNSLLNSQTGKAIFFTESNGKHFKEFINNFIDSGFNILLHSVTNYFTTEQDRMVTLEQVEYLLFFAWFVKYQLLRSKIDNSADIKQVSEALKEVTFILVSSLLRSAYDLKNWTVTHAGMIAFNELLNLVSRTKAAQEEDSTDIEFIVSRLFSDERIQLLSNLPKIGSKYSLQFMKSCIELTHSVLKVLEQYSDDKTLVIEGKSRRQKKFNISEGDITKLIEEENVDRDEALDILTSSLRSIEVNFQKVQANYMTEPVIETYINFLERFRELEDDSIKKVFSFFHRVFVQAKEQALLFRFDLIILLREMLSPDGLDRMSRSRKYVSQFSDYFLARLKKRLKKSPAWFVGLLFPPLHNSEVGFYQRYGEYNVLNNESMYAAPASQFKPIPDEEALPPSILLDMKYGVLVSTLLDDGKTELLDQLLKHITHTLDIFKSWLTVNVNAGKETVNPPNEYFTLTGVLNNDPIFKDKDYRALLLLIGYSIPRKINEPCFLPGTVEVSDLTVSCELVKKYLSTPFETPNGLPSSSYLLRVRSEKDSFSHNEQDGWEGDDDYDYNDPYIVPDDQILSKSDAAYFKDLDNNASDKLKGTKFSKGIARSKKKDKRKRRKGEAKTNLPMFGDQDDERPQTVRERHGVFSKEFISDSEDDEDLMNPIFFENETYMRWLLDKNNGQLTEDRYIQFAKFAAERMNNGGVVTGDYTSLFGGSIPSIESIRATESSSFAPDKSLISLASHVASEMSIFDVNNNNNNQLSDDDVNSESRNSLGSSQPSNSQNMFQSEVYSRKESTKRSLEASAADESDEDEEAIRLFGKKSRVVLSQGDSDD
Tof1-Csm3 (full-length, CBP-tagged) (Saccharomyces cerevisiae), sequence (Q04659 whole entry, chain 2 of 2, further chain): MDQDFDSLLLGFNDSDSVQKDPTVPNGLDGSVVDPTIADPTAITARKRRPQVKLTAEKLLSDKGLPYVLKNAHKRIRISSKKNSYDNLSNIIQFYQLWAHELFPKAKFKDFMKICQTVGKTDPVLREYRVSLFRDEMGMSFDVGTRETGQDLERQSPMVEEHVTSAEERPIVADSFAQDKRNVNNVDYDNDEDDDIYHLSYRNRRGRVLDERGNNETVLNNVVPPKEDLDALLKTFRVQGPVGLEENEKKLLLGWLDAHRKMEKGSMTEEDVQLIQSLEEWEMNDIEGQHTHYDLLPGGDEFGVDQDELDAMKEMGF

Substance: S-PΔC (FACT lacking the C-terminus of Pob3) (from UniProt P32558 1-1035; Q04636 1-552) (complex)
- nucleosome reorganization, loss of FRET (%), with Nhp6 [1]: 63%

Substance: SΔC-P (FACT lacking the C-terminus of Spt16) (from UniProt P32558 1-1035; Q04636 1-552) (complex)
- nucleosome reorganization, loss of FRET (%), with Nhp6 [1]: 46.8%

Substance: SΔN-P (FACT lacking the N-terminus of Spt16) (from UniProt P32558 1-1035; Q04636 1-552) (complex)
- nucleosome reorganization, loss of FRET (%), with Nhp6 [1]: 65%
- decrease in in vitro chromatin replication (leading-strand length), 50 nM SΔN-P against 50 nM fl FACT, 20 nM fl Tof1-Csm3; restored by 4- and 8-fold excess of SΔN-P [2]: 58%

Substance: full-length (fl) FACT (Spt16-Pob3) (from UniProt P32558 1-1035; Q04636 1-552) (complex)
- nucleosome reorganization, loss of FRET (%) of Cy3/Cy5-labelled nucleosomal DNA, FACT together with Nhp6 (yFACT); nucleosome alone 9.23 [3]: 72.1%
- nucleosome reorganization, loss of FRET (%) of Cy3/Cy5-labelled nucleosomal DNA, FACT without Nhp6; nucleosome alone 9.23 [3]: 10.5%
- reduction of the nucleosome reorganization activity of yFACT (single-molecule FRET) when Tof1-Csm3 is added [4]: 53%
